Data on 125 sequences can be found in the supplement of paper PMC9112550, “Optimization of the antimicrobial peptide Bac7 by deep mutational scanning” (BMC Biology, 2022).
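Note: peptides expressed intracellularly from a pBAD plasmid library in pooled LB shake-flask culture, induced with 0.3% L-arabinose, DNA abundance read by NGS, three biological replicates, DESeq2 with apeglm shrinkage.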

In the series the test system is Escherichia coli TOP10. As to the kind of experiment: shrunken log2 fold change of peptide-encoding DNA abundance (4.5 h post-induction vs induction); higher = less antimicrobial activity (less host growth inhibition). The following applies: time post-induction: 4.5 h; library: site-saturation at positions 5, 18, 19, 20.
With RRIRLRPPRLPRPRPRPGHYPRP, the “shrunken log2 fold change” value was -0.0695.
Regarding RRIRVRPPRLPRPRPRPVSIPRP, the “shrunken log2 fold change” value worked out at 0.126.
To RRIRERPPRLPRPRPRPQVSPRP belongs -0.0262; to RRIRDRPPRLPRPRPRPQIIPRP, 0.0399; to RRIRGRPPRLPRPRPRPQWAPRP, 0.498.
In the case of RRIRIRPPRLPRPRPRPQWMPRP, the “shrunken log2 fold change” value was -0.103.
As for RRIRGRPPRLPRPRPRPTWEPRP, the “shrunken log2 fold change” value was determined as 0.031.
Consider RRIRRRPPRLPRPRPRPDQDPRP, for which the “shrunken log2 fold change” value was -0.0033.
RRIRMRPPRLPRPRPRPYDTPRP: the “shrunken log2 fold change” value was -0.171.
On to RRIRLRPPRLPRPRPRPMEMPRP, for which the “shrunken log2 fold change” value was -0.0251.
With RRIRRRPPRLPRPRPRPNMIPRP the figure was -0.914; with RRIRDRPPRLPRPRPRPNNLPRP, -0.556; with RRIRCRPPRLPRPRPRPQYRPRP, -2.05.
To RRIRNRPPRLPRPRPRPYPAPRP belongs 0.0741.
For RRIRKRPPRLPRPRPRPSYFPRP, the “shrunken log2 fold change” value was -0.029.
With RRIRVRPPRLPRPRPRPPESPRP the figure was 0.201; with RRIRRRPPRLPRPRPRPMAQPRP, 0.318.
Turning to RRIRARPPRLPRPRPRPHAYPRP, the “shrunken log2 fold change” value came out at 0.0225.
With RRIRWRPPRLPRPRPRPSHHPRP the figure was -0.3.
With RRIRWRPPRLPRPRPRPTMDPRP the figure was 0.156.
Regarding RRIRHRPPRLPRPRPRPTTYPRP, the “shrunken log2 fold change” value is -0.9.
Turning to RRIRSRPPRLPRPRPRPNCVPRP, the “shrunken log2 fold change” value was determined as 0.0124.
With RRIRSRPPRLPRPRPRPTDNPRP the figure was -0.249.
As for RRIRQRPPRLPRPRPRPALKPRP, the “shrunken log2 fold change” value amounted to 0.0439.
To RRIRRRPPRLPRPRPRPLKCPRP belongs 0.0734; to RRIRIRPPRLPRPRPRPYPPPRP, -0.818.
With RRIRVRPPRLPRPRPRPMDDPRP the figure was -0.312; with RRIRIRPPRLPRPRPRPRQSPRP, 0.065; with RRIRDRPPRLPRPRPRPKEKPRP, -0.0263.
To RRIRPRPPRLPRPRPRPELAPRP belongs 0.643; to RRIRPRPPRLPRPRPRPNTCPRP, -0.00653.
For RRIRDRPPRLPRPRPRPPNMPRP, the “shrunken log2 fold change” value was 0.0281.
On to RRIRCRPPRLPRPRPRPEPKPRP, for which the “shrunken log2 fold change” value was found to be 0.104.
Consider RRIRQRPPRLPRPRPRPGICPRP, for which the “shrunken log2 fold change” value is 0.156.
On to RRIRRRPPRLPRPRPRPYYDPRP, for which the “shrunken log2 fold change” value was -1.02.
For the sequence RRIRSRPPRLPRPRPRPGWIPRP, the “shrunken log2 fold change” value was 0.0994.
Turning to RRIRTRPPRLPRPRPRPYQHPRP, the “shrunken log2 fold change” value is -0.376.
With RRIRKRPPRLPRPRPRPMFQPRP the figure was -0.0168; with RRIRVRPPRLPRPRPRPFLNPRP, -0.148; with RRIRNRPPRLPRPRPRPTQEPRP, 0.786.
With RRIRLRPPRLPRPRPRPVSLPRP the figure was -0.0897; with RRIRYRPPRLPRPRPRPIHRPRP, -0.0635; with RRIRHRPPRLPRPRPRPTQAPRP, 0.255.
RRIRFRPPRLPRPRPRPKPCPRP: the “shrunken log2 fold change” value worked out at 0.3.
For RRIRHRPPRLPRPRPRPREKPRP, the “shrunken log2 fold change” value was -0.0164.
As for RRIRCRPPRLPRPRPRPKTNPRP, the “shrunken log2 fold change” value stood at 0.00906.
To RRIRFRPPRLPRPRPRPFNDPRP belongs 0.00352; to RRIRKRPPRLPRPRPRPWTLPRP, 0.00115; to RRIRARPPRLPRPRPRPWRFPRP, 0.323.
Take RRIRCRPPRLPRPRPRPPNPPRP: the “shrunken log2 fold change” value worked out at 0.761.
Turning to RRIRARPPRLPRPRPRPVWKPRP, the “shrunken log2 fold change” value was determined as 0.125.
As for RRIRHRPPRLPRPRPRPNWRPRP, the “shrunken log2 fold change” value was found to be 0.0926.
In the case of RRIRHRPPRLPRPRPRPTWSPRP, the “shrunken log2 fold change” value came to 0.0859.
For RRIRFRPPRLPRPRPRPYVTPRP, the “shrunken log2 fold change” value is -0.148.
To RRIRLRPPRLPRPRPRPFKTPRP belongs -0.501; to RRIRMRPPRLPRPRPRPADGPRP, 0.19; to RRIRSRPPRLPRPRPRPEMIPRP, 0.0158.
In the case of RRIRRRPPRLPRPRPRPWCIPRP, the “shrunken log2 fold change” value is -0.366.
As to RRIRNRPPRLPRPRPRPTFEPRP, the “shrunken log2 fold change” value was -0.0715.
With RRIRTRPPRLPRPRPRPPGVPRP the figure was 0.182; with RRIRLRPPRLPRPRPRPKVTPRP, -0.00182; with RRIRLRPPRLPRPRPRPILDPRP, -0.05.
In the case of RRIRPRPPRLPRPRPRPGHRPRP, the “shrunken log2 fold change” value was 0.0675.
For the sequence RRIRHRPPRLPRPRPRPIIQPRP, the “shrunken log2 fold change” value is -0.348.
Regarding RRIRIRPPRLPRPRPRPVQMPRP, the “shrunken log2 fold change” value was -0.675.
For the sequence RRIRNRPPRLPRPRPRPETPPRP, the “shrunken log2 fold change” value was determined as 0.36.
With RRIRFRPPRLPRPRPRPCWRPRP the figure was -0.199; with RRIRGRPPRLPRPRPRPIHAPRP, 0.418; with RRIRDRPPRLPRPRPRPENGPRP, 0.0234.
To RRIRFRPPRLPRPRPRPSPIPRP belongs -0.13.
With RRIRGRPPRLPRPRPRPSSEPRP the figure was 0.351; with RRIRARPPRLPRPRPRPNIMPRP, -0.266.
Turning to RRIRFRPPRLPRPRPRPAFTPRP, the “shrunken log2 fold change” value is -0.224.
For the sequence RRIRHRPPRLPRPRPRPEIMPRP, the “shrunken log2 fold change” value was -0.023.
With RRIRSRPPRLPRPRPRPTLHPRP the figure was 0.147.
With RRIRFRPPRLPRPRPRPRQWPRP the figure was 0.39; with RRIRERPPRLPRPRPRPYWKPRP, -0.0866; with RRIRSRPPRLPRPRPRPLMVPRP, 0.134.
To RRIRTRPPRLPRPRPRPMAHPRP belongs -0.161.
In the case of RRIRLRPPRLPRPRPRPEREPRP, the “shrunken log2 fold change” value amounted to 0.0872.
Turning to RRIRPRPPRLPRPRPRPNDEPRP, the “shrunken log2 fold change” value is 0.0306.
To RRIRCRPPRLPRPRPRPEDKPRP belongs -0.114; to RRIRRRPPRLPRPRPRPHTAPRP, 0.313; to RRIRPRPPRLPRPRPRPMEIPRP, -0.00192.
To RRIRHRPPRLPRPRPRPPDSPRP belongs 0.139; to RRIRLRPPRLPRPRPRPEMYPRP, -0.00133; to RRIRARPPRLPRPRPRPYGVPRP, -0.12.
Take RRIRNRPPRLPRPRPRPTQIPRP: the “shrunken log2 fold change” value was found to be 0.135.
In the case of RRIRQRPPRLPRPRPRPLEWPRP, the “shrunken log2 fold change” value amounted to 0.0921.
To RRIRARPPRLPRPRPRPDPNPRP belongs 0.531; to RRIRCRPPRLPRPRPRPVEGPRP, 0.0501.
Turning to RRIRKRPPRLPRPRPRPKDIPRP, the “shrunken log2 fold change” value is -0.261.
RRIRERPPRLPRPRPRPNDIPRP: the “shrunken log2 fold change” value came to 0.0203.
With RRIRNRPPRLPRPRPRPLSIPRP the figure was -0.423; with RRIRTRPPRLPRPRPRPWCVPRP, -0.212.
To RRIRPRPPRLPRPRPRPSSKPRP belongs -0.217.
With RRIRLRPPRLPRPRPRPPNQPRP, the “shrunken log2 fold change” value turned out to be 0.0881.
With RRIRYRPPRLPRPRPRPETTPRP, the “shrunken log2 fold change” value was -0.289.
As to RRIRARPPRLPRPRPRPREMPRP, the “shrunken log2 fold change” value was found to be 0.563.
With RRIRPRPPRLPRPRPRPSCIPRP the figure was -0.749.
As for RRIRPRPPRLPRPRPRPDKDPRP, the “shrunken log2 fold change” value was -0.173.
With RRIRMRPPRLPRPRPRPRYTPRP the figure was 0.338; with RRIRVRPPRLPRPRPRPSAFPRP, 0.0827; with RRIRPRPPRLPRPRPRPIKGPRP, 0.0468.
Consider RRIRFRPPRLPRPRPRPPDVPRP, for which the “shrunken log2 fold change” value worked out at 0.0274.
To RRIRNRPPRLPRPRPRPHCDPRP belongs -0.292; to RRIRERPPRLPRPRPRPDQQPRP, -0.278; to RRIRDRPPRLPRPRPRPKFSPRP, -0.023.
With RRIRWRPPRLPRPRPRPYRYPRP the figure was 0.0299.
For RRIRMRPPRLPRPRPRPYHQPRP, the “shrunken log2 fold change” value is -0.297.
With RRIRVRPPRLPRPRPRPTHKPRP the figure was 0.333; with RRIRCRPPRLPRPRPRPQKLPRP, -0.188.
Consider RRIRVRPPRLPRPRPRPPCTPRP, for which the “shrunken log2 fold change” value is -0.159.
With RRIRPRPPRLPRPRPRPSPHPRP the figure was -0.367; with RRIRTRPPRLPRPRPRPPHQPRP, 0.237; with RRIRLRPPRLPRPRPRPFNMPRP, -0.189.
To RRIRARPPRLPRPRPRPTKPPRP belongs 0.24; to RRIRERPPRLPRPRPRPGDAPRP, 0.106; to RRIRTRPPRLPRPRPRPCQPPRP, -0.387.
For the sequence RRIRWRPPRLPRPRPRPHKGPRP, the “shrunken log2 fold change” value is -0.185.
Consider RRIRMRPPRLPRPRPRPKDFPRP, for which the “shrunken log2 fold change” value was -0.025.
For RRIRWRPPRLPRPRPRPVTYPRP, the “shrunken log2 fold change” value was determined as 0.186.
With RRIRARPPRLPRPRPRPYANPRP the figure was -0.165; with RRIRARPPRLPRPRPRPRLTPRP, 1.58.
With RRIRGRPPRLPRPRPRPMSKPRP the figure was 0.269.
